8 sequences from the supplement of paper PMC11246515 can be followed below.

± gives the standard deviation of the averaged measurements.

This data set in a line: total protein half-life in vivo (active degradation + dilution); higher = more stable protein.
Where [1] appears, read: E. coli NCM3722 delta-clpP delta-lon delta-hslV, growth: N-lim chemostat, doubling time 6 h.
The mark [2] stands for this setting: E. coli NCM3722 delta-clpP, growth: N-lim chemostat, doubling time 6 h.
Setting [3] is: E. coli NCM3722 delta-hslV, growth: N-lim chemostat, doubling time 6 h.
Where [4] appears, read: E. coli NCM3722 delta-lon, growth: N-lim chemostat, doubling time 6 h.
Where [5] appears, read: E. coli NCM3722 delta-smpB, growth: N-lim chemostat, doubling time 6 h.
[6] abbreviates: wild type E. coli NCM3722, growth: C-lim chemostat, doubling time 3 h.
Setting [7] is: wild type E. coli NCM3722, growth: C-lim chemostat, doubling time 6 h.
Setting [8] is: wild type E. coli NCM3722, growth: C-lim chemostat, doubling time 12 h.
Where [9] appears, read: wild type E. coli NCM3722, growth: N-lim chemostat, doubling time 6 h.
Setting [10] is: wild type E. coli NCM3722, growth: N-lim chemostat, doubling time 12 h.
Setting [11] is: wild type E. coli NCM3722, growth: P-lim chemostat, doubling time 6 h.
The mark [12] stands for this setting: wild type E. coli NCM3722, growth: P-lim chemostat, doubling time 12 h.

Take “MLVSSNVTMQFGSKPLFENISVKFGGGNRYGLIGANGSGKSTFMKILGGDLEPTLGNVSLDPNERIGKLRQDQFAFEEFTVLDTVIMGHKELWEVKQERDRIYALPEMSEEDGYKVADLEVKYGEMDGYSAEARAGELLLGVGIPVEQHYGPMSEVAPGWKLRVLLAQALFADPDILLLDEPTNNLDIDTIRWLEQVLNERDSTMIIISHDRHFLNMVCTHMADLDYGELRVYPGNYDEYMTAATQARERLLADNAKKKAQIAELQSFVSRFSANASKSRQATSRARQIDKIKLEEVKASSRQNPFIRFEQDKKLFRNALEVEGLTKGFDNGPLFKNLNLLLEVGEKLAVLGTNGVGKSTLLKTLVGDLQPDSGTVKWSENARIGYYAQDHEYEFENDLTVFEWMSQWKQEGDDEQAVRSILGRLLFSQDDIKKPAKVLSGGEKGRMLFGKLMMQKPNILIMDEPTNHLDMESIESLNMALELYQGTLIFVSHDREFVSSLATRILEITPERVIDFSGNYEDYLRSKGIE [P0A9U3]”: the “total protein half-life in vivo” value reads like this: under setting [1], 5.14 ± 0.66 h; under setting [2], 4.36 ± 0.29 h; under setting [3], 4.35 ± 0.22 h; under setting [4], 4.4 ± 0.35 h; under setting [5], 4.27 ± 0.19 h; under setting [6], 2.9 ± 0.28 h. The “total protein half-life in vivo” value is 5.571 ± 0.029 h under setting [7]; 10.1 ± 0.12 h under setting [8]; 4.218 ± 0.03 h under setting [9]; 6.54 ± 0.14 h under setting [10]; 5.08 ± 0.85 h under setting [11]; 8.98 ± 1.4 h under setting [12].

As to “MTVAYIAIGSNLASPLEQVNAALKALGDIPESHILTVSSFYRTPPLGPQDQPDYLNAAVALETSLAPEELLNHTQRIELQQGRVRKAERWGPRTLDLDIMLFGNEVINTERLTVPHYDMKNRGFMLWPLFEIAPELVFPDGEMLRQILHTRAFDKLNKW”, the “total protein half-life in vivo” value runs as follows: under setting [2], 4.02 h; under setting [3], 4.41 h; under setting [4], 4.82 h; under setting [6], 3.22 ± 0.3 h; under setting [8], 10.3 h; under setting [9], 3.76 h. Moreover, the “total protein half-life in vivo” value runs as follows: under setting [11], 5.3 h; under setting [12], 10.7 h.

On to “MKLPVREFDAVVIGAGGAGMRAALQISQSGQTCALLSKVFPTRSHTVSAQGGITVALGNTHEDNWEWHMYDTVKGSDYIGDQDAIEYMCKTGPEAILELEHMGLPFSRLDDGRIYQRPFGGQSKNFGGEQAARTAAAADRTGHALLHTLYQQNLKNHTTIFSEWYALDLVKNQDGAVVGCTALCIETGEVVYFKARATVLATGGAGRIYQSTTNAHINTGDGVGMAIRAGVPVQDMEMWQFHPTGIAGAGVLVTEGCRGEGGYLLNKHGERFMERYAPNAKDLAGRDVVARSIMIEIREGRGCDGPWGPHAKLKLDHLGKEVLESRLPGILELSRTFAHVDPVKEPIPVIPTCHYMMGGIPTKVTGQALTVNEKGEDVVVPGLFAVGEIACVSVHGANRLGGNSLLDLVVFGRAAGLHLQESIAEQGALRDASESDVEASLDRLNRWNNNRNGEDPVAIRKALQECMQHNFSVFREGDAMAKGLEQLKVIRERLKNARLDDTSSEFNTQRVECLELDNLMETAYATAVSANFRTESRGAHSRFDFPDRDDENWLCHSLYLPESESMTRRSVNMEPKLRPAFPPKIRTY [P0AC41]”, for which the “total protein half-life in vivo” value by setting is: under setting [1], 6.32 ± 0.098 h; under setting [2], 6.04 ± 0.75 h; under setting [3], 5.73 ± 0.33 h; under setting [4], 5.17 ± 0.66 h; under setting [5], 5.69 ± 0.26 h; under setting [6], 3.17 ± 0.15 h. In addition, the “total protein half-life in vivo” value is, setting by setting: under setting [7], 6.49 ± 0.39 h; under setting [8], 11.6 ± 1.4 h; under setting [9], 5.81 ± 0.35 h; under setting [10], 11 ± 0.49 h; under setting [11], 6.2 ± 0.12 h; under setting [12], 13.3 ± 0.3 h.

For “MRGKILLYQLKYRWQSLSIFGCFLCKMTLFRYQKIIYDTGVHQMRSFFYTICSSEQQESITDHHSLAEICQKFNILPEHVVIEQVDIKEVVSEQRLLRQLIHHEMNRQDTLVIPDLSCLGRTVEDLQNILFFCLQKEMFIYSYHPASRIEPSAESCLSFLIARQDTIDIHNLKSTKSRYRHVKKKLGRKEGSKYRRDITILKKGGFTQAEIAKKLSISLSTVKRHWNNGIIG”, the “total protein half-life in vivo” value under setting [1] stood at 6.03 h.

Take “MTTNTHTLQIEEILELLPHRFPFLLVDRVLDFEEGRFLRAVKNVSVNEPFFQGHFPGKPIFPGVLILEAMAQATGILAFKSVGKLEPGELYYFAGIDEARFKRPVVPGDQMIMEVTFEKTRRGLTRFKGVALVDGKVVCEATMMCARSREA [P0A6Q6]”: the “total protein half-life in vivo” value runs as follows: under setting [1], 5.67 ± 0.36 h; under setting [4], 5.38 ± 0.24 h; under setting [5], 5.504 ± 0.036 h; under setting [6], 2.86 ± 0.45 h; under setting [7], 6.1 ± 0.81 h; under setting [8], 11.2 ± 0.12 h. The “total protein half-life in vivo” value reads like this: under setting [9], 6.23 ± 0.6 h; under setting [10], 11.9 ± 0.43 h; under setting [11], 5.75 ± 0.8 h; under setting [12], 13.4 ± 0.14 h.

“MTTQVPPSALLPLNPEQLARLQAATTDLTPTQLAWVSGYFWGVLNQQPAALAATPAPAAEMPGITIISASQTGNARRVAEALRDDLLAAKLNVKLVNAGDYKFKQIASEKLLIVVTSTQGEGEPPEEAVALHKFLFSKKAPKLENTAFAVFSLGDSSYEFFCQSGKDFDSKLAELGGERLLDRVDADVEYQAAASEWRARVVDALKSRAPVAAPSQSVATGAVNEIHTSPYSKDAPLVASLSVNQKITGRNSEKDVRHIEIDLGDSGMRYQPGDALGVWYQNDPALVKELVELLWLKGDEPVTVEGKTLPLNEALQWHFELTVNTANIVENYATLTRSETLLPLVGDKAKLQHYAATTPIVDMVRFSPAQLDAEALINLLRPLTPRLYSIASSQAEVENEVHVTVGVVRYDVEGRARAGGASSFLADRVEEEGEVRVFIEHNDNFRLPANPETPVIMIGPGTGIAPFRAFMQQRAADEAPGKNWLFFGNPHFTEDFLYQVEWQRYVKDGVLTRIDLAWSRDQKEKVYVQDKLREQGAELWRWINDGAHIYVCGDANRMAKDVEQALLEVIAEFGGMDTEAADEFLSELRVERRYQRDVY”: the “total protein half-life in vivo” value reads like this: under setting [1], 5.2 ± 0.35 h; under setting [2], 3.456 ± 0.027 h; under setting [3], 3.67 ± 0.1 h; under setting [4], 4.31 ± 0.044 h; under setting [5], 3.24 ± 0.067 h; under setting [6], 2.808 ± 0.02 h. The “total protein half-life in vivo” value was 4.99 ± 0.42 h under setting [7]; 8.53 ± 0.79 h under setting [8]; 3.58 ± 0.06 h under setting [9]; 5.215 ± 0.029 h under setting [10]; 4.99 ± 0.36 h under setting [11]; 8.98 ± 1 h under setting [12].

“MDVQQFFVVAVFFLIPIFCFREAWKGWRAGAIDKRVKNAPEPVYVWRAKNPGLFFAYMVAYIGFGILSIGMIVYLIFYR”: the “total protein half-life in vivo” value by setting is: under setting [1], 2.64 h; under setting [3], 3.67 h; under setting [5], 4.42 h; under setting [7], 1.84 h; under setting [11], 4.74 h; under setting [12], 8.43 h.

For the sequence “MQERIKACFTESIQTQIAAAEALPDAISRAAMTLVQSLLNGNKILCCGNGTSAANAQHFAASMINRFETERPSLPAIALNTDNVVLTAIANDRLHDEVYAKQVRALGHAGDVLLAISTRGNSRDIVKAVEAAVTRDMTIVALTGYDGGELAGLLGPQDVEIRIPSHRSARIQEMHMLTVNCLCDLIDNTLFPHQDD”, the “total protein half-life in vivo” value by setting is: under setting [1], 5.68 ± 1.7 h; under setting [2], 6.95 ± 0.57 h; under setting [3], 4.6 ± 0.094 h; under setting [4], 5.12 ± 0.18 h; under setting [5], 5.68 ± 1.4 h; under setting [6], 3.087 ± 0.0052 h. Moreover, the “total protein half-life in vivo” value under setting [7] is 5.56 ± 0.26 h; the “total protein half-life in vivo” value under setting [8] stood at 11.1 ± 0.025 h; the “total protein half-life in vivo” value under setting [9] is 4.54 h; the “total protein half-life in vivo” value under setting [10] turned out to be 7.55 ± 1 h; the “total protein half-life in vivo” value under setting [11] worked out at 5.81 ± 0.52 h; the “total protein half-life in vivo” value under setting [12] was 13 ± 3.2 h.
